Values of other authors, collected in article PMC6557524.

Molecular target: CCR2 (UniProt P41597)
Sequence of UniProt P41597 (P41597 whole entry): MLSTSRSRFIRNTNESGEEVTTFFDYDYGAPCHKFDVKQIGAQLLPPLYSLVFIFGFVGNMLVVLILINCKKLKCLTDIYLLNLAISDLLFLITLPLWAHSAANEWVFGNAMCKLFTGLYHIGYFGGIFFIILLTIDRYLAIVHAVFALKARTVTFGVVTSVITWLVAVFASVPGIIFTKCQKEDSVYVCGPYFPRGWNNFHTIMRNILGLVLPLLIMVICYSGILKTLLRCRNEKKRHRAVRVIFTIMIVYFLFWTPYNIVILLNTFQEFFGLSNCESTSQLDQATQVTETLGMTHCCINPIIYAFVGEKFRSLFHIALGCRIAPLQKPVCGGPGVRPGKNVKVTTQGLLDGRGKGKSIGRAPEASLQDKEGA

CCL2 (from UniProt P13500)
Kd: 2.1 nM
